The supplement of paper PMC9112550, “Optimization of the antimicrobial peptide Bac7 by deep mutational scanning” (BMC Biology, 2022)

system: Escherichia coli TOP10; assay: shrunken log2 fold change of peptide-encoding DNA abundance (4.5 h post-induction vs induction); higher = less antimicrobial activity (less host growth inhibition); details: time post-induction: 4.5 h; library: site-saturation at positions 5, 18, 19, 20
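Note: peptides expressed intracellularly from a pBAD plasmid library in pooled LB shake-flask culture, induced with 0.3% L-arabinose, DNA abundance read by NGS, three biological replicates, DESeq2 with apeglm shrinkage.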

Row | Sequence | shrunken log2 fold change
1 | RRIRMRPPRLPRPRPRPTYCPRP | -0.271
2 | RRIRFRPPRLPRPRPRPEYDPRP | 0.0271
3 | RRIRYRPPRLPRPRPRPDYDPRP | -0.476
4 | RRIRHRPPRLPRPRPRPWPWPRP | 0.199
5 | RRIRWRPPRLPRPRPRPECAPRP | 0.852
6 | RRIRYRPPRLPRPRPRPDISPRP | -0.415
7 | RRIRFRPPRLPRPRPRPWPPPRP | 1.11
8 | RRIRGRPPRLPRPRPRPILFPRP | 0.257
9 | RRIRERPPRLPRPRPRPNKTPRP | 0.0491
10 | RRIRARPPRLPRPRPRPCKDPRP | 0.0511
11 | RRIRYRPPRLPRPRPRPPQSPRP | -0.118
12 | RRIRLRPPRLPRPRPRPPRKPRP | 0.659
13 | RRIRTRPPRLPRPRPRPDEQPRP | 0.0127
14 | RRIRYRPPRLPRPRPRPAQQPRP | 0.0788
15 | RRIRERPPRLPRPRPRPEMNPRP | 0.0387
16 | RRIRGRPPRLPRPRPRPHTCPRP | 0.104
17 | RRIRHRPPRLPRPRPRPTEQPRP | -0.185
18 | RRIRIRPPRLPRPRPRPEWDPRP | 0.054
19 | RRIRTRPPRLPRPRPRPEPRPRP | 0.482
20 | RRIRVRPPRLPRPRPRPSVIPRP | -0.239
21 | RRIRCRPPRLPRPRPRPRTPPRP | 0.571
22 | RRIRERPPRLPRPRPRPKRWPRP | 0.35
23 | RRIRRRPPRLPRPRPRPIADPRP | -0.0686
24 | RRIRFRPPRLPRPRPRPAQGPRP | -0.00447
25 | RRIRKRPPRLPRPRPRPTNWPRP | 0.689

Row | Sequence | shrunken log2 fold change
26 | RRIRHRPPRLPRPRPRPPDYPRP | 4.26
27 | RRIRVRPPRLPRPRPRPTAFPRP | 0.0786
28 | RRIRHRPPRLPRPRPRPTKIPRP | -0.316
29 | RRIRTRPPRLPRPRPRPRQEPRP | 0.0565
30 | RRIRWRPPRLPRPRPRPWETPRP | -0.01
31 | RRIRRRPPRLPRPRPRPSQMPRP | 0.0447
32 | RRIRVRPPRLPRPRPRPFIGPRP | -0.291
33 | RRIRNRPPRLPRPRPRPHHMPRP | -1.41
34 | RRIRNRPPRLPRPRPRPKLCPRP | 0.163
35 | RRIRARPPRLPRPRPRPDSLPRP | 0.0733
36 | RRIRCRPPRLPRPRPRPPVLPRP | -0.169
37 | RRIRPRPPRLPRPRPRPGSDPRP | -0.00287
38 | RRIRARPPRLPRPRPRPTQTPRP | 0.69
39 | RRIRDRPPRLPRPRPRPRIFPRP | -0.0459
40 | RRIRLRPPRLPRPRPRPFHNPRP | -0.336
41 | RRIRWRPPRLPRPRPRPHPTPRP | 0.115
42 | RRIRYRPPRLPRPRPRPLMVPRP | -0.439
43 | RRIRERPPRLPRPRPRPYFWPRP | -0.143
44 | RRIRIRPPRLPRPRPRPNCVPRP | -0.376
45 | RRIRHRPPRLPRPRPRPLISPRP | -0.387
46 | RRIRDRPPRLPRPRPRPCNIPRP | -0.228
47 | RRIRPRPPRLPRPRPRPWYNPRP | -0.184
48 | RRIRHRPPRLPRPRPRPDRAPRP | 0.217
49 | RRIRARPPRLPRPRPRPKEGPRP | -0.00115
50 | RRIRVRPPRLPRPRPRPGGRPRP | 0.317

Row | Sequence | shrunken log2 fold change
51 | RRIRCRPPRLPRPRPRPVRIPRP | -0.108
52 | RRIRHRPPRLPRPRPRPMLAPRP | -0.144
53 | RRIRPRPPRLPRPRPRPEHWPRP | 0.226
54 | RRIRGRPPRLPRPRPRPGEMPRP | 1.31
55 | RRIRSRPPRLPRPRPRPCMVPRP | -0.511
56 | RRIRSRPPRLPRPRPRPMGPPRP | -0.0846
57 | RRIRWRPPRLPRPRPRPAVYPRP | -0.682
58 | RRIRMRPPRLPRPRPRPSIAPRP | -0.0688
59 | RRIRFRPPRLPRPRPRPIETPRP | -0.186
60 | RRIRDRPPRLPRPRPRPCCAPRP | 0.58
61 | RRIRCRPPRLPRPRPRPFYYPRP | -0.97
62 | RRIRPRPPRLPRPRPRPQEVPRP | 0.0706
63 | RRIRTRPPRLPRPRPRPYFRPRP | -0.138
64 | RRIRRRPPRLPRPRPRPAAYPRP | 0.585
65 | RRIRYRPPRLPRPRPRPVVCPRP | -0.408
66 | RRIRTRPPRLPRPRPRPCPRPRP | -0.13
67 | RRIRTRPPRLPRPRPRPTILPRP | -0.453
68 | RRIRIRPPRLPRPRPRPMQHPRP | -0.289
69 | RRIRWRPPRLPRPRPRPPQHPRP | 0.275
70 | RRIRERPPRLPRPRPRPQYRPRP | -0.612
71 | RRIRWRPPRLPRPRPRPTMYPRP | 0.00431
72 | RRIRFRPPRLPRPRPRPAEIPRP | -0.228
73 | RRIRTRPPRLPRPRPRPHNSPRP | -1.22
74 | RRIRARPPRLPRPRPRPFQGPRP | 0.0242
75 | RRIRARPPRLPRPRPRPMIYPRP | 0.00125

Row | Sequence | shrunken log2 fold change
76 | RRIRLRPPRLPRPRPRPDLPPRP | -0.0128
77 | RRIRMRPPRLPRPRPRPCTTPRP | 0.104
78 | RRIRNRPPRLPRPRPRPWINPRP | -0.0185
79 | RRIRPRPPRLPRPRPRPKCHPRP | 0.0622
80 | RRIRPRPPRLPRPRPRPGSSPRP | -0.0653
81 | RRIRARPPRLPRPRPRPATPPRP | 0.894
82 | RRIRYRPPRLPRPRPRPMWVPRP | -0.0664
83 | RRIRERPPRLPRPRPRPFVEPRP | 0.0315
84 | RRIRTRPPRLPRPRPRPKHSPRP | -0.416
85 | RRIRTRPPRLPRPRPRPVCFPRP | -0.104
86 | RRIRFRPPRLPRPRPRPVVKPRP | -0.461
87 | RRIRTRPPRLPRPRPRPEASPRP | 0.00709
88 | RRIRSRPPRLPRPRPRPNRAPRP | -0.0803
89 | RRIRKRPPRLPRPRPRPEYIPRP | -0.367
90 | RRIRRRPPRLPRPRPRPLDHPRP | -0.357
91 | RRIRQRPPRLPRPRPRPGSNPRP | 0.127
92 | RRIRVRPPRLPRPRPRPWFTPRP | 0.0469
93 | RRIRPRPPRLPRPRPRPNMVPRP | -0.772
94 | RRIRLRPPRLPRPRPRPIHFPRP | -0.77
95 | RRIRVRPPRLPRPRPRPPPDPRP | 0.834
96 | RRIRCRPPRLPRPRPRPKAQPRP | 0.262
97 | RRIRFRPPRLPRPRPRPQYAPRP | -0.862
98 | RRIRMRPPRLPRPRPRPPEKPRP | 2.49
99 | RRIRGRPPRLPRPRPRPLEEPRP | 1.76
100 | RRIRPRPPRLPRPRPRPDNIPRP | -0.406

Row | Sequence | shrunken log2 fold change
101 | RRIRPRPPRLPRPRPRPAHPPRP | 0.273
102 | RRIRERPPRLPRPRPRPYNHPRP | -0.272
103 | RRIRFRPPRLPRPRPRPLRVPRP | -0.108
104 | RRIRIRPPRLPRPRPRPAKMPRP | -0.101
105 | RRIRFRPPRLPRPRPRPCFGPRP | -0.0611
106 | RRIRNRPPRLPRPRPRPPICPRP | 0.0224
107 | RRIRWRPPRLPRPRPRPSCDPRP | 0.574
108 | RRIRTRPPRLPRPRPRPPMGPRP | 0.271
109 | RRIRWRPPRLPRPRPRPYGCPRP | -0.189
110 | RRIRHRPPRLPRPRPRPCVYPRP | -0.62
111 | RRIRARPPRLPRPRPRPKNPPRP | 0.196
112 | RRIRSRPPRLPRPRPRPVCSPRP | 0.0822
113 | RRIRHRPPRLPRPRPRPCDMPRP | -0.302
114 | RRIRERPPRLPRPRPRPICCPRP | -0.133
115 | RRIRYRPPRLPRPRPRPWYHPRP | -0.0547
116 | RRIRPRPPRLPRPRPRPQTDPRP | -0.0886
117 | RRIRDRPPRLPRPRPRPPIWPRP | 0.305
118 | RRIRQRPPRLPRPRPRPPHHPRP | 0.972
119 | RRIRFRPPRLPRPRPRPHCFPRP | -0.0267
120 | RRIRERPPRLPRPRPRPLFPPRP | -0.264
121 | RRIRERPPRLPRPRPRPHQQPRP | 0.119
122 | RRIRGRPPRLPRPRPRPHMHPRP | 0.448
123 | RRIRARPPRLPRPRPRPNENPRP | 0.177
124 | RRIRVRPPRLPRPRPRPLPVPRP | 0.0196
125 | RRIRGRPPRLPRPRPRPQSYPRP | 0.113

Row | Sequence | shrunken log2 fold change
126 | RRIRCRPPRLPRPRPRPIGEPRP | -0.0453
127 | RRIRHRPPRLPRPRPRPDLIPRP | -0.0224
128 | RRIRERPPRLPRPRPRPNDKPRP | -0.507
129 | RRIRRRPPRLPRPRPRPHCKPRP | 0.298
130 | RRIRNRPPRLPRPRPRPGCHPRP | -0.318
131 | RRIRERPPRLPRPRPRPQHSPRP | -0.597
132 | RRIRCRPPRLPRPRPRPAWLPRP | 0.303
133 | RRIRFRPPRLPRPRPRPSPQPRP | 0.0415
134 | RRIRNRPPRLPRPRPRPSAKPRP | -0.0395
135 | RRIRCRPPRLPRPRPRPVFWPRP | 0.138
136 | RRIRARPPRLPRPRPRPVIYPRP | -0.308
137 | RRIRCRPPRLPRPRPRPGWEPRP | 0.253
138 | RRIRYRPPRLPRPRPRPMNPPRP | 0.02
139 | RRIRKRPPRLPRPRPRPWQHPRP | -0.0281
140 | RRIRTRPPRLPRPRPRPNFLPRP | 0.998
141 | RRIRHRPPRLPRPRPRPKQGPRP | -0.0386
142 | RRIRFRPPRLPRPRPRPECYPRP | -0.155
143 | RRIRWRPPRLPRPRPRPFYQPRP | -0.0811
144 | RRIRNRPPRLPRPRPRPHQWPRP | -0.0998
145 | RRIRNRPPRLPRPRPRPETYPRP | -0.554
146 | RRIRWRPPRLPRPRPRPYYWPRP | -1.31
147 | RRIRIRPPRLPRPRPRPYEEPRP | -0.828
148 | RRIRGRPPRLPRPRPRPIQEPRP | 0.416
149 | RRIRLRPPRLPRPRPRPFQMPRP | -0.193
150 | RRIRSRPPRLPRPRPRPVLYPRP | 1.03
